Source: patent publication US6358505 (dated 2002)

T1: human G-CSF receptor (human, UniProt Q99062 25-836)
T1 sequence (looked up): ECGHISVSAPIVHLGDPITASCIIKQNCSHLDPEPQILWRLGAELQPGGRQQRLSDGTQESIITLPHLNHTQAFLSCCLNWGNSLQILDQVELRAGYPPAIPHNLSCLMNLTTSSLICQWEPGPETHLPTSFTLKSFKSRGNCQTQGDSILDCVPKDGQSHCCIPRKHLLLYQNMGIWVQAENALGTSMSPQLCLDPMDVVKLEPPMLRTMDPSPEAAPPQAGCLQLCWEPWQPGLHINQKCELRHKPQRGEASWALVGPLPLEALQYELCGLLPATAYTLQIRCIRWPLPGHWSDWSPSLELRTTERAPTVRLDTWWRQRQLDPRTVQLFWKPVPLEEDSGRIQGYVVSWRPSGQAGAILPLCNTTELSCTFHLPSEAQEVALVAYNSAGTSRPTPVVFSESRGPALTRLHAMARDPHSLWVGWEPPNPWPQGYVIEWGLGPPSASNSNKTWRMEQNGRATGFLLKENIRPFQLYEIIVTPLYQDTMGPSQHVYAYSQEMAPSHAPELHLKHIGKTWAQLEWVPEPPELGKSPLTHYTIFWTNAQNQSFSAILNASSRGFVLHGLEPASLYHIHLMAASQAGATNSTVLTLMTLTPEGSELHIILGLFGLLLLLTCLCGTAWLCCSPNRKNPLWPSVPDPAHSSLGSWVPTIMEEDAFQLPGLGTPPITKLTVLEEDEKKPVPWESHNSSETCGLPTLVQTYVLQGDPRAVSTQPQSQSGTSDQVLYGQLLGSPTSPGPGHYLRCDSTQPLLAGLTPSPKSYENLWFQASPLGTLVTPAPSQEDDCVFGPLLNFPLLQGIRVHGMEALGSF

B1: G-CSF receptor agonist expressed from pMON25187 (ligand)
chain: ATQGAMPAFASAFQRRAGGVLVASHLQSFLEVSYRVLRHLAQPSGGSGGSQSFLLKSLEQVRKIQGDGAALQEKLCATYKLCHPEELVLLGHSLGIPWAPLSSCPSQALQLAGCLSQLHSGLFLYQGLLQALEGISPELGPTLDTLQLDVADFATTIWQQMEELGMAPALQP
B2: G-CSF receptor agonist expressed from pMON3499 (ligand)
chain: LLGHSLGIPWAPLSSCPSQALQLAGCLSQLHSGLFLYQGLLQALEGISPELGPTLDTLQLDVADFATTIWQQMEELGMAPALQPTQGAMPAFASAFQRRAGGVLVASHLQSFLEVSYRVLRHLAQPTPLGPASSLPQSFLLKSLEQVRKIQGDGAALQEKLCATYKLCHPEELV
B3: G-CSF receptor agonist expressed from pMON25188 (ligand)
chain: ASAFQRRAGGVLVASHLQSFLEVSYRVLRHLAQPSGGSGGSQSFLLKSLEQVRKIQGDGAALQEKLCATYKLCHPEELVLLGHSLGIPWAPLSSCPSQALQLAGCLSQLHSGLFLYQGLLQALEGISPELGPTLDTLQLDVADFATTIWQQMEELGMAPALQPTQGAMPAFA
B4: G-CSF receptor agonist expressed from pMON3450 (ligand)
chain: AYKLCHPEELVLLGHSLGIPWAPLSSCPSQALQLAGCLSQLHSGLFLYQGLLQALEGISPELGPTLDTLQLDVADFATTIWQQMEELGMAPALQPTQGAMPAFASAFQRRAGGVLVASHLQSFLEVSYRVLRHLAQPTPLGPASSLPQSFLLKSLEQVRKIQGDGAALQEKLCAT
B5: G-CSF receptor agonist expressed from pMON25183 (ligand)
chain: ATQGAMPAFASAFQRRAGGVLVASHLQSFLEVSYRVLRHLAQPTPLGPASSLPQSFLLKSLEQVRKIQGDGAALQEKLCATYKLCHPEELVLLGHSLGIPWAPLSSCPSQALQLAGCLSQLHSGLFLYQGLLQALEGISPELGPTLDTLQLDVADFATTIWQQMEELGMAPALQP
B6: G-CSF receptor agonist expressed from pMON25186 (ligand)
chain: AMAPALQPTQGAMPAFASAFQRRAGGVLVASHLQSFLEVSYRVLRHLAQPSGGSGGSQSFLLKSLEQVRKIQGDGAALQEKATYKLCHPEELVLLGHSLGIPWAPLSSCPSQALQLAGCLSQLHSGLFLYQGLLQALEGISPELGPTLDTLQLDVADFATTIWQQMEELG
B7: G-CSF receptor agonist expressed from pMON3455 (ligand)
chain: AYKLCHPEELVLLGHSLGIPWAPLSSCPSQALQLAGCLSQLHSGLFLYQGLLQALEGISPELGPTLDTLQLDVADFATTIWQQMEELGMAPALQPTQGAMPAFASAFQRRAGGVLVASHLQSFLEVSYRVLRHLAQPSGGSGGSQSFLLKSLEQVRKIQGDGAALQEKLCAT
B8: G-CSF receptor agonist expressed from pMON25184 (ligand)
chain: ASAFQRRAGGVLVASHLQSFLEVSYRVLRHLAQPTPLGPASSLPQSFLLKSLEQVRKIQGDGAALQEKLCATYKLCHPEELVLLGHSLGIPWAPLSSCPSQALQLAGCLSQLHSGLFLYQGLLQALEGISPELGPTLDTLQLDVADFATTIWQQMEELGMAPALQPTQGAMPAFA
B9: G-CSF receptor agonist expressed from pMON25182 (ligand)
chain: AMAPALQPTQGAMPAFASAFQRRAGGVLVASHLQSFLEVSYRVLRHLAQPTPLGPASSLPQSFLLKSLEQVRKIQGDGAALQEKLCATYKLCHPEELVLLGHSLGIPWAPLSSCPSQALQLAGCLSQLHSGLFLYQGLLQALEGISPELGPTLDTLQLDVADFATTIWQQMEELG

target: T1, human G-CSF receptor; assay: cell-based or functional assay

Molecule | EC50 (pM), Baf/3-G-CSF cell proliferation assay [pM]
native G-CSF (from UniProt P09919 31-204) (ligand) | 60
B1 | 83
B2 | 137
B3 | 41
B4 | 121
B5 | 58
B6 | 92
B7 | 102
B8 | 70
B9 | 38
